Assays:
[1] = biological target: Schizosaccharomyces pombe P-factor pheromone receptor (Mam2) (Schizosaccharomyces pombe) (UniProt Q00619); test: cell-based or functional assay
[2] = biological target: Aga2-HA-PAS40-(G4S)3-CD19-myc yeast surface display fusion protein (CD19.1 ECD displayed on SCASA yeast aAPCs) (synthetic construct, CD19 part modified from human); test: cell-based or functional assay
[3] = biological target: CD19 on the human CD19+ NALM6 B cell precursor leukemia cell line (human) (UniProt P15391); test: cell-based or functional assay
Chain of UniProt P15391 (P15391 20-556): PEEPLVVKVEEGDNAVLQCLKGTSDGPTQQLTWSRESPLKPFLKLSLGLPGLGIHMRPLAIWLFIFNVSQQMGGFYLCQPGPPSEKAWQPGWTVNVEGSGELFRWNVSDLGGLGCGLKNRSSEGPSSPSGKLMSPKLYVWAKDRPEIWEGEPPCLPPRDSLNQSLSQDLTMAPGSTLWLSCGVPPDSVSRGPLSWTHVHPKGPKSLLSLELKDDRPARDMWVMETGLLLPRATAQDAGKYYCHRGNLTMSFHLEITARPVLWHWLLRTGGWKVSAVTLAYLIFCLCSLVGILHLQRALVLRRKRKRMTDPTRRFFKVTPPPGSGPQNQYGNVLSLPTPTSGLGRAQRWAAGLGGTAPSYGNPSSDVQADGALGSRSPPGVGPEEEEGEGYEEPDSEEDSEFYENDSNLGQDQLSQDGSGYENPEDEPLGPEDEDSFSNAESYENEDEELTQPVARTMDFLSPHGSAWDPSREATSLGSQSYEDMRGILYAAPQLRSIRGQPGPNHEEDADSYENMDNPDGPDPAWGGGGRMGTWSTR

CD19 = test: Yeast surface display (YSD) of CD19, antibody staining and flow cytometry; type: cell-based, Saccharomyces cerevisiae
Procedure: To investigate the different variants of CD19 modules, yeast cells were grown and, in some cases, stimulated to present CD19 differentially, whereafter they were stained with antibodies and assessed by flow cytometry. Flow cytometric measurement was done using a NovoCyte Quanteon flow cytometer (Agilent) to quantify CD19 by staining with mouse anti-CD19 (FMC63) (Absolute Antibody; Ab00613) and goat anti-mouse-AF647 (polyclonal) (Thermo Fisher; A-21236), detected in R667/30-H, as well as rabbit anti-HA (RM305) (Thermo Fisher; MA5-27915) and goat anti-rabbit-AF488 (polyclonal) (Thermo Fisher; A-11008), detected in B525/45-H (see FIG. 7), and to measure PRP-regulated morphological changes (SSC-H). […] Data represents means of median fluorescence intensity (mMFI) for three biological replicates and standard deviations hereof. Two-way ANOVA with multiple comparisons tests was conducted for all conditions. Histograms are representative replicates. No SSC-normalization was used in the evaluation of the effector module, unlike in Example 1, as it is the absolute response of all effects combined that constitute the total output that CAR T cells interpret and react to.
For conventional YSD using strain EBY100 and pCT-plasmid-based expression (Chao et al. 2006, Isolating and engineering human antibodies using yeast surface display. Nature Protocols, 1(2), 755-768), strains were pre-grown in SC −trp, then transferred to 5 mL SC −trp +2% Gal for induction of YSD or +2% Gluc as a negative control (24 hrs., 30° C., 250 r.p.m.). NALM6 was cultured in RPMI 1640 medium (ATCC modification) (Thermo Fisher) with 10% fetal bovine serum and 1% pen-strep (RPMI+10% FBS) at 37° C. with 5% CO2. For the investigation of PGAL1-titratability of DIX41 with pMAD58 and DIX74, strains were pre-grown in SC −ura and SC, respectively, then transferred to SC −ura and SC, respectively, with varying concentrations of galactose (0.0002%-2% Gal), using raffinose as compensating carbon source, and YSD was induced for 24 hrs. (30° C., 250 r.p.m.). Strains were similarly grown in 2% Gluc as negative controls. For the investigation of the strain library with constitutive and dynamically regulated expression of CD19 (Background strain/No YSD, PPGK1-Empty, PMFA2-CD19, PFUS1-CD19, PFIG.1-CD19, PMFA1-CD19, PHPF1-CD19, PTDH3-CD19, PPGK1-CD19) the strains were pre-grown in SC, whereafter, for each replicate, 50.000 cells were transferred to 300 μL volumes comprising a 10-fold dilution series of α-factor (0-100 μM) (GenScript) dissolved in SC+1% DMSO, and stimulated for 20 hrs. (30° C., 250 r.p.m.).

[4] = test system: pheromone response pathway (PRP)
Procedure: To investigate the dose-response features of the selected promoters PMFA2, PFUS1, PAGA2, PFIG.1, PMFA1, PYCL076W, PHPF1, PIME4, PCSS1, PTDH3, PPGK1 and P6XLexOLEU2 upon GPCR stimulation the strains were pre-grown in SC (24 hrs.), whereafter, for each replicate, cells were transferred to 200 μL volumes comprising a 10-fold dilution series of α-factor (0-100 μM) (GenScript) dissolved in SC+1% DMSO, and stimulated for 5 hrs. (30° C., 250 r.p.m.). Flow cytometric measurement was done to quantify yEGFP levels (B525/45-A) and PRP-regulated morphological changes, denoted shmooing (SSC-A) using a NovoCyte Quanteon flow cytometer (Agilent). Data represents means of median fluorescence intensity (mMFI) for three biological replicates and standard deviations hereof. Two-way ANOVA with Tukey's multiple comparisons test was conducted for all conditions.

Chain of UniProt Q00619 (Q00619 other isoform, or with tags, fused parts or gaps): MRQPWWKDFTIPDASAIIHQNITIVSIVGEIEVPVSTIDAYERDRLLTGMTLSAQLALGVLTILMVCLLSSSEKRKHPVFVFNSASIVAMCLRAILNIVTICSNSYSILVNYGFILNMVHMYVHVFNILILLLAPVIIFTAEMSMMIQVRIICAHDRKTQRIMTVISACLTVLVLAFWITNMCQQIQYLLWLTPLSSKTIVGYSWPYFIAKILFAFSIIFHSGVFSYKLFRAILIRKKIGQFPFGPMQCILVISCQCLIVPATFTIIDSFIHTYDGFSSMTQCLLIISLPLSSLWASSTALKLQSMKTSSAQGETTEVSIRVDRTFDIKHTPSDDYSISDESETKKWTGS

Q: Which fold change of CD19 expression (PFUS1 cassette, anti-HA staining), strain DIX60, pH=5, 0-10 µM P-factor [1] does the source give for P-factor (GenScript) (peptide) here?
A: 249 fold

Q: For “anti-CD19 CAR (FMC63-CD8α-4-1BB-CD3ζ) (receptor)”, which fold specific activation of CAR+ Jurkat NFAT-Luc cells, yeast PFUS1-CD19 at 0.01 µM α-factor [2] is on record?
A: 3.2 fold

Q: And the fold specific activation of CAR+ Jurkat NFAT-Luc cells, yeast PTDH3-CD19 at 0.001 µM α-factor [2]?
A: 27.7 fold

Q: What about the increase of CAR+ Jurkat NFAT-Luc activation relative to the uninduced condition, yeast PTDH3-CD19 at 0.1 µM α-factor [2] of the same molecule?
A: 10.3 fold

Q: And the increase of CAR+ Jurkat NFAT-Luc specific activation relative to the unstimulated condition, yeast PMFA2-CD19 at 0.01 µM α-factor [2]?
A: 15.3 fold

Q: And the increase of CAR+ Jurkat NFAT-Luc specific activation relative to the unstimulated condition, yeast PMFA2-CD19 at 0.1 µM α-factor [2]?
A: 14.5 fold

Q: What about the increase of CAR+ Jurkat NFAT-Luc specific activation relative to the unstimulated condition, yeast PMFA2-CD19 at 1 µM α-factor [2] of the same molecule?
A: 13.6 fold

Q: What about the increase of CAR+ Jurkat NFAT-Luc specific activation relative to the unstimulated state, yeast PFUS1-CD19 at 1 µM α-factor [2] of the same molecule?
A: 3.1 fold

Q: What about the maximal fold specific activation of Jurkat NFAT-Luc cells without GPCR stimulation, yeast PMFA2-CD19, 90% CAR+ [2] of the same molecule?
A: 5.5 fold

Q: What about the maximal fold specific activation of Jurkat NFAT-Luc cells without GPCR stimulation, yeast PPGK1-CD19, 100% CAR+ [2] of the same molecule?
A: 11.5 fold

Q: And the maximal fold specific activation of Jurkat NFAT-Luc cells without GPCR stimulation, yeast PTDH3-CD19, 70% CAR+ [2]?
A: 12.8 fold

Q: What about the maximal specific activation of 100% CAR+ Jurkat NFAT-Luc cells (luciferase), yeast PFUS1-CD19 pre-stimulated with 1 µM α-factor [2] of the same molecule?
A: 4.1 fold

Q: What about the maximal specific activation of 100% CAR+ Jurkat NFAT-Luc cells (luciferase), yeast PMFA2-CD19 pre-stimulated with 0.01 µM α-factor [2] of the same molecule?
A: 22.3 fold

Q: And the maximal specific activation of 100% CAR+ Jurkat NFAT-Luc cells (luciferase), yeast PTDH3-CD19 pre-stimulated with 0.1 µM α-factor [2]?
A: 61.9 fold

Q: What about the maximal specific activation of CAR+ Jurkat NFAT-Luc cells by yeast PTDH3-CD19 relative to NALM6 [2] of the same molecule?
A: 2.2 fold

Q: What about the maximal specific activation by NALM6 relative to any SCASA yeast aAPC without GPCR stimulation [3] of the same molecule?
A: 2.2 fold

Q: And the peaking activation intensity of Jurkat NFAT-Luc cells co-cultured with NALM6, 90% CAR+ [3]?
A: 28.1 fold

B1: PFIG.1: pheromone-responsive Saccharomyces cerevisiae promoter, SEQ ID NO: 9, processing module (yEGFP strain DIX25, CD19 strain DIX56) (nucleic acid, listed as Saccharomyces cerevisiae)
DNA: TTGAATGATCAACCAAACGCCGATATAGTCACTATTGGTGATAAAATTAAAATGCAGCTATTGAGAACCCATCCTAACAACATTAAATTGTCTATTAATGGAATTGGTAAAGATGCCCCAACTTTCCAAGAATCTGCTTTGATTGCCGATAAGTTATTGAGTGTCATGAAGGCCGGCACTTACCCAAAGATTTCCATTTTCTACAATGACCCAGTGTCTTCCCTATCTTTTGAACCATCTGAAAAACCGATCTTTAACGCCAAGACCATTGAACAATCCCCATCATTCGGCAAATTTGAGATCGACACGGACGCAAACGTTCCAAGAGATTTGTTTGAATATACTTTGGCTAACCAAATGTTGACAGCAATGGCTCAAGGTTATGCTGCTGAAATTTCCGCCAGAAGAAACGCTATGGATAACGCTTCCAAGAATGCCGGTGATATGATCAATCGTTACTCTATCTTGTACAACAGAACAAGACAAGCTGTCATTACTAATGAACTGGTTGATATTATTACTGGTGCTTCCTCTTTGGGATGATAAAAAAATCACCCTGCATTGCCTCTTTATTTGACGTTGTTTTTGTAGAACATGAAACGAATTTTGACTTGATGAGACGAAGTATATATCCAAAGAATACCTTAAATAGAAAAGGAAAGATAATAAATACTAAACACTACTATATATTCAGGTAAAATACAAAAATTATAACATTTTTAAAACTTTTTTTTTTTGAAAGTCCTTCTCGCTTTAGGATTTTTTCCCATTAAGATTATGATGGTTTCATGTATGTGTCAGTTAAAAAAAATATGGCTAAGTAGCAATGAAACGAACCAAGAAAATGAAAACAATATATAGTGCTGTTGAAATAACAAAGACATTGGTATATATTTGTAAAATGTCTGTTAAATGTTTTTTATCTCAGGTTCTTGCTTGTCTTTGGTAGAAGAAATTATAGTAAACAAACAAACAAACAAACAAAAAAAAAAAAAAAAAA
Q: For B1, which “CD19 level at unstimulated conditions” value (CD19; no GPCR stimulation) is on record?
A: extremely low levels of CD19 at the limit of detection

Q: What about the “fold upregulation of CD19 display relative to unstimulated condition” value (CD19; α-factor 0-100 μM, 20 hrs, promoter driving CD19 in DIX41 background) of the same molecule?
A: 629.6±98.6 fold

Q: And the “maximum fold change of yEGFP, unnormalized” value ([4]; 1 μM α-factor (peak))?
A: 516.8±83.0 fold

Q: What about the “fold change of yEGFP, unnormalized” value ([4]; 100 μM α-factor) of the same molecule?
A: 482.6±98.5 fold

Q: And the “maximum fold change of yEGFP, SSC-normalized” value ([4]; 100 μM α-factor (peak))?
A: 128.8±7.2 fold

Q: What about the “fold change of induction of yEGFP, SSC-normalized” value ([4]; α-factor 0-100 μM, 5 hrs, excluding PRP-induced expression boost) of the same molecule?
A: 128.81±7.17 fold
